{
  "source": "patent US20210220460",
  "key": {"[1]": {"system": "OmpA-His (A1S_1193 with C-terminal 5x His tag), expressed in strain M2 backgrounds"}, "[2]": {"system": "ComP-His (pilin-like protein ComP of A. baylyi with C-6X His tag)"}, "[3]": {"system": "DsbA1-His of N. meningitidis expressed in A. baylyi (pBAV-dsbA1-His, C-6X His)"}, "[4]": {"system": "OmpA-His (A1S_1193) expressed in A. baylyi"}, "[5]": {"system": "PilAM2, major type IVa pilin of A. nosocomialis strain M2"}, "[6]": {"system": "PilA17978-His (pilin of A. baumannii ATCC 17978 with C-terminal hexa-histidine tag)"}},
  "data": [
    {"substance": "Pg1LM2, general O-OTase of A. nosocomialis strain M2 (ORF M215_10475)", "values": [
      {"measurement": "OmpA-His electrophoretic mobility, western blot; ESI-TOF-MS/MS", "setting": "[1]", "result": "OmpA-His from the M2Δpg1L::kan and the M2ΔweeH::kan backgrounds migrated at an increased electrophoretic mobility, consistent with the lack of a post-translational modification"}
    ]},
    {"substance": "Pg1LADP1, general O-OTase of A. baylyi ADP1 (ACIAD0103)", "values": [
      {"measurement": "ComP-His electrophoretic mobility, western blot", "setting": "[2]", "result": "Pg1LADP1 is not required for ComP post-translational modification"},
      {"measurement": "DsbA1-His electrophoretic mobility, western blot of A. baylyi lysates", "setting": "[3]", "result": "displayed an increased electrophoretic mobility in the Δpg1LADP1 background relative to wild-type and Δpg1LComP backgrounds"},
      {"measurement": "OmpA-His electrophoretic mobility, western blot of A. baylyi lysates", "setting": "[4]", "result": "displayed an increased electrophoretic mobility in the Δpg1LADP1 background relative to wild-type and Δpg1LComP backgrounds"}
    ]},
    {"substance": "TfpOM2, type four pilin specific O-oligosaccharyltransferase of A. nosocomialis strain M2 (ORF M215_10480)", "values": [
      {"measurement": "MS/MS analysis of PilA from surface shear preparations", "setting": "[5]", "result": "PilA from the M2ΔtfpO::kanΔpilT::strep mutant was unmodified"}
    ]},
    {"substance": "Pg1LComP, ComP-specific O-OTase of A. baylyi ADP1 (ACIAD3337)", "values": [
      {"measurement": "ComP-His electrophoretic mobility, western blot", "setting": "[2]", "result": "pg1LComP (ACIAD3337) is required for ComP modification"},
      {"measurement": "glycosylation in E. coli CLM24, western blot with anti-his and anti-glycan antibodies", "setting": "[2]", "result": "lower electrophoretic mobility bands that react to the anti-his and anti-glycan antibodies indicate glycosylation of ComP by the C. jejuni LLO"},
      {"measurement": "glycosylation in E. coli CLM24 with the S. pneumoniae serotype 14 CPS locus, western blot", "setting": "[2]", "result": "Lower electrophoretic mobility bands in panel A that react to both Anti-His and Anti-Glycan antibodies in lane 2 relative to lane 1"},
      {"measurement": "heterologous ComP-His electrophoretic mobility, western blot", "setting": "[2]", "result": "ComP-His was only modified in A. baylyi ADP1"},
      {"measurement": "heterologous PilA17978 electrophoretic mobility, western blot", "setting": "[6]", "result": "PilA17978 was not glycosylated by Pg1LComP"},
      {"measurement": "heterologous PilAM2 electrophoretic mobility, western blot", "setting": "[5]", "result": "Pg1LComP was unable to glycosylate the pilins recognized by TfpO"}
    ]}
  ]
}
